Assay results: patent publication US20110165161A1, “ANTI-EPCAM ANTIBODIES THAT INDUCE APOPTOSIS OF CANCER CELLS AND METHODS USING SAME” (priority 2009, published 2011)

B1: 1G10: murine anti-human EpCAM monoclonal antibody (IgG1, K), hybridoma m290-1G10; VH SEQ ID NO:7, VL SEQ ID NO:9 (antibody, listed as Mus musculus, V domains shown)
VH: QIQLVQSGPELKKPGETVKISCKASGYTFTNYGMNWVKQAPGKGFKWMGWINTYTGEPTYADDFKGRFAFSLETSASTAYLQINNLQNEDMATYFCARWGYDFDYWGQGTTLTVSS
VL: QIVLTQSPAIMSSSPGEKVTMTCSASSSISYMNWYQQKPGTSPKRWIYDTSKLASGVPARFSGSGSGTSYSLTISSMEAEDAATYYCHQRSSYPYTFGGGTKLEIKR
B2: 1F10: murine anti-human EpCAM monoclonal antibody (IgG1, λ1), hybridoma m338-1F10.3; VH SEQ ID NO:11, VL SEQ ID NO:13 (antibody, listed as Mus musculus, V domains shown)
VH: EVKLLESGGGLVQPGGSLKLSCAASGFDFSRYWMSWVRQAPGKGLEWIGEINPDSSTMNYTPSLKDKFIISRDNAKNTLYLQMSKVRSEDTALYYCARGAYAMDYWGQGTSVTVSS
VL: QAVVTQESALTTSPGETVTLTCRSSTGAVTTSNNANWVQEKPDHLFTGLIGATNNRAPGVPARFSGSLIGDKAALTITGAQTEDEAIYFCALWYINHWVFGGGTKLTVLG

Tests used:
[1] = tested on: Colorectal cancer DLD-1 cells; experiment: Antibody cytotoxicity assay (Annexin V + PI), DLD-1; format: cell-based; conditions: for Induction of cell death (in words): 1, 3 and 10 μg/ml, overnight; for Cytotoxic effect (Annexin V + PI staining, dead cells): 17-20 hr
Experimental: After a 17-20 hr incubation at 37° C., cells were stained with 0.3 μl of FITC-conjugated Annexin V (Strong Biotech Corp. Cat. No. AVK250) in 50 μl Annexin V binding buffer (Strong Biotech Corp. Cat. No. AVK250) at RT for 20 min. After wash, the cells were then stained with 0.3 μl of propidium iodide in 200 μl Annexin V binding buffer. Annexin V and Propidium Iodide were used as a joint indicator for cell death. The data were acquired with BD FACSCalibur based on an acquisition of 3,000-5,000 cells and analyzed with the Cell Quest software. The combined percentages of the Annexin V+/PI+, Annexin V+/PI− and Annexin V−/PI+populations were considered as dead cells.

[2] = target: T1, human EpCAM (CHO/EpCAM cells) (Homo sapiens, UniProt P16422); experiment: FACS binding of anti-EpCAM antibodies to CHO/EpCAM cells; conditions: antibody 0.1 μg/ml; HPS at 300x dilution
T1 construct: full-length of human EpCAM (aa 1-314); expressed in transfected cells; host or cells: CHO (Chinese hamster ovary) cells
T1 sequence (P16422 24-314): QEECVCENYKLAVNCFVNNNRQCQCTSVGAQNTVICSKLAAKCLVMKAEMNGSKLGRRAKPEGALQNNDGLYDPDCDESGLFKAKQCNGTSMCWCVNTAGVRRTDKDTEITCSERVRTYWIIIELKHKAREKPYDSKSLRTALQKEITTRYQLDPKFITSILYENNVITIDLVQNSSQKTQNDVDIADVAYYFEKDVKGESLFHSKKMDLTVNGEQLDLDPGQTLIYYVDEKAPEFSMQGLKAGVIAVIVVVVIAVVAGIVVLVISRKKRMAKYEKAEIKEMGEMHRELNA
Experimental: The cDNAs encoding full-length of human EpCAM (aa 1-314) were amplified by PCR from the cDNA pool generated from T-47D cells and cloned into the modified pcDNA 3.1/Myc-His(+) A vector (Invitrogen), followed by transfecting into Chinese hamster ovary (CHO) cells at 80-90% confluence in 6-well culture dishes, using Lipofectamine 2000 (Invitrogen, Cat. No. 11668-500). Transfectants were selected in F12/10% FBS medium containing 600 ug/ml Hygromycin B (C.A. IN-10687-010). Transfected cells expressing hEpCAM were identified by flow cytometry with anti-EpCAM antibodies.
1×10^5 CHO/EpCAM or CHO parental cells were seeded in each well of a v-bottomed 96-well plate and incubated with purified anti-EpCAM antibodies or mouse IgG control antibody 9E10 at concentration of 0.1 μg/ml. A 300× dilution of human cell hyper-immune serum (HPS 300×) was used as binding positive control for both cell lines here. After 1 hr incubation at 4° C., cells were washed twice with 200 μl FACS buffer (1×PBS containing 1% FBS), stained with 100 μl of 1 μg/ml goat-anti-mouse IgG-PE (Southern Biotech, Cat. No. 1032-09) in FACS buffer and then incubated at 4° C. for 30 min. Cells were washed thrice with FACS buffer and analyzed by flow cytometry (BD LSR, BD Life Sciences).

Row | Molecule | Induction of cell death (in words) [1] | Cytotoxic effect (Annexin V + PI staining, dead cells) ([1]; mAb 1.0 μg/ml) | Cytotoxic effect (Annexin V + PI staining, dead cells) ([1]; mAb 3.0 μg/ml) | Cytotoxic effect (Annexin V + PI staining, dead cells) ([1]; mAb 10 μg/ml) | Binding (FACS, Mean fluorescence intensity (MFI)) CHO/EpCAM [2]
1 | B1 | substantial cell death | 28% | 40% | 60% | 6178
2 | B2 | substantial cell death | 65% | 65% | 61% | 5634
